How the values were obtained:
[1] = molecular target: MslH (lasso peptide epimerase), N-terminally His6-tagged, wild type (Streptomyces griseorubiginosus); assay: crystal structure; MslH:apo, His6-MslH 5 mg/ml, sitting-drop vapor diffusion, 20 °C; space group I422, one monomer in the asymmetric unit; 2.30 Å
[2] = molecular target: MslH (lasso peptide epimerase), N-terminally His6-tagged, wild type (Streptomyces griseorubiginosus); assay: SEC; gel-filtration of purified recombinant His6-MslH; apparent molecular weight against the 49.4 kDa calculated for the monomer
[3] = molecular target: MslH (lasso peptide epimerase), N-terminally His6-tagged, wild type (Streptomyces griseorubiginosus); assay: crystal structure; co-crystallisation: purified His6-MslA analogue-MslB1 complex mixed with His6-MslH (5 mg/ml) at 1.2:1 mole ratio 16 h before the precipitant; sitting drops, 20 °C; one monomer in the asymmetric unit

stoichiometry N [1]: 8 | stoichiometry N [2]: 8 | stoichiometry N [3]: 8
Substance: MslH (lasso peptide epimerase), N-terminally His6-tagged, wild type (enzyme)

Reference: PMC10406935
